# Test results reported in patent US20210388087A1 (Chugai, published 2021).
# Molecular target: T1, CD3 epsilon homodimer protein (UniProt P07766 23-126)
# T1 construct: also called CD3 (CD3 epsilon)
# Assay: SPR, CD3 epsilon homodimer on chip, one-arm antibody as analyte;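 also: surface plasmon resonance at 25 °C with CD3 epsilon homodimer amine-coupled to a CM4 sensor chip, antibody injected as analyte, HBS-EP+ as running buffer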
# T1 sequence (P07766 23-126): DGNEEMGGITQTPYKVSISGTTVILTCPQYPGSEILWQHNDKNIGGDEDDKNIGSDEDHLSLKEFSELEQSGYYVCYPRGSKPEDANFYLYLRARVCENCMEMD
row,KD ratio (KD of CE115HA000/KD of altered form),Binder
1,4.04,"CE115HA000 K52F (antibody, human IgG1, kappa, L234A L235A, N297A, name in Kabat numbering, one-arm antibody) heavy: QVQLVESGGGVVQPGRSLRLSCAASGFTFSNAWMHWVRQAPGKGLEWVAQIFAKSNNYATYYAESVKGRFTISRDDSKNSLYLQMNSLKTEDTAVYYCRYVHYGAYYGVDAWGQGTTVTVSSASTKGPSVFPLAPSSKSTSGGTAALGCLVKDYFPEPVTVSWNSGALTSGVHTFPAVLQSSGLYSLSSVVTVPSSSLGTQTYICNVNHKPSNTKVDKKVEPKSCDKTHTCPPCPAPEAAGGPSVFLFPPKPKDTLMISRTPEVTCVVVDVSHEDPEVKFNWYVDGVEVHNAKTKPREEQYASTYRVVSVLTVLHQDWLNGKEYKCKVSNKALPAPIEKTISKAKGQPREPQVYTLPPSRCELTKNQVSLSCAVKGFYPSDIAVEWESNGQPENNYKTTPPVLDSDGSFFLVSKLTVDKSRWQQGNVFSCSVMHEALHNHYTQKSLSLSPDYKDDDDK EPKSSDKTHTCPPCPAPELLGGPSVFLFPPKPKDTLMISRTPEVTCVVVDVSHEDPEVKFNWYVDGVEVHNAKTKPREEQYNSTYRVVSVLTVLHQDWLNGKEYKCKVSNKALPAPIEKTISKAKGQPREPQVCTLPPSRDELTKNQVSLWCLVKGFYPSDIAVEWESNGQPENNYKTTPPVLDSDGSFFLYSKLTVDKSRWQQGNVFSCSVMHEALHNRYTQKSLSLSP light: DIVMTQSPLSLPVTPGEPASISCRSSQSLVHSNRNTYLHWYQQKPGQAPRLLIYKVSNRFSGVPDRFSGSGSGTDFTLKISRVEAEDVGVYYCGQGTQVPYTFGQGTKLEIKRTVAAPSVFIFPPSDEQLKSGTASVVCLLNNFYPREAKVQWKVDNALQSGNSQESVTEQDSKDSTYSLSSTLTLSKADYEKHKVYACEVTHQGLSSPVTKSFNRGEC"
2,2.65,"CE115HA000 K52H (antibody, human IgG1, kappa, L234A L235A, N297A, name in Kabat numbering, one-arm antibody) heavy: QVQLVESGGGVVQPGRSLRLSCAASGFTFSNAWMHWVRQAPGKGLEWVAQIHAKSNNYATYYAESVKGRFTISRDDSKNSLYLQMNSLKTEDTAVYYCRYVHYGAYYGVDAWGQGTTVTVSSASTKGPSVFPLAPSSKSTSGGTAALGCLVKDYFPEPVTVSWNSGALTSGVHTFPAVLQSSGLYSLSSVVTVPSSSLGTQTYICNVNHKPSNTKVDKKVEPKSCDKTHTCPPCPAPEAAGGPSVFLFPPKPKDTLMISRTPEVTCVVVDVSHEDPEVKFNWYVDGVEVHNAKTKPREEQYASTYRVVSVLTVLHQDWLNGKEYKCKVSNKALPAPIEKTISKAKGQPREPQVYTLPPSRCELTKNQVSLSCAVKGFYPSDIAVEWESNGQPENNYKTTPPVLDSDGSFFLVSKLTVDKSRWQQGNVFSCSVMHEALHNHYTQKSLSLSPDYKDDDDK EPKSSDKTHTCPPCPAPELLGGPSVFLFPPKPKDTLMISRTPEVTCVVVDVSHEDPEVKFNWYVDGVEVHNAKTKPREEQYNSTYRVVSVLTVLHQDWLNGKEYKCKVSNKALPAPIEKTISKAKGQPREPQVCTLPPSRDELTKNQVSLWCLVKGFYPSDIAVEWESNGQPENNYKTTPPVLDSDGSFFLYSKLTVDKSRWQQGNVFSCSVMHEALHNRYTQKSLSLSP light: DIVMTQSPLSLPVTPGEPASISCRSSQSLVHSNRNTYLHWYQQKPGQAPRLLIYKVSNRFSGVPDRFSGSGSGTDFTLKISRVEAEDVGVYYCGQGTQVPYTFGQGTKLEIKRTVAAPSVFIFPPSDEQLKSGTASVVCLLNNFYPREAKVQWKVDNALQSGNSQESVTEQDSKDSTYSLSSTLTLSKADYEKHKVYACEVTHQGLSSPVTKSFNRGEC"

# More lines, now with the values behind:
row,Binder,KD ratio (KD of CE115HA000/KD of altered form)
1,"CE115HA000 K43E (antibody, human IgG1, kappa, L234A L235A, N297A, name in Kabat numbering, one-arm antibody) heavy: QVQLVESGGGVVQPGRSLRLSCAASGFTFSNAWMHWVRQAPGEGLEWVAQIKAKSNNYATYYAESVKGRFTISRDDSKNSLYLQMNSLKTEDTAVYYCRYVHYGAYYGVDAWGQGTTVTVSSASTKGPSVFPLAPSSKSTSGGTAALGCLVKDYFPEPVTVSWNSGALTSGVHTFPAVLQSSGLYSLSSVVTVPSSSLGTQTYICNVNHKPSNTKVDKKVEPKSCDKTHTCPPCPAPEAAGGPSVFLFPPKPKDTLMISRTPEVTCVVVDVSHEDPEVKFNWYVDGVEVHNAKTKPREEQYASTYRVVSVLTVLHQDWLNGKEYKCKVSNKALPAPIEKTISKAKGQPREPQVYTLPPSRCELTKNQVSLSCAVKGFYPSDIAVEWESNGQPENNYKTTPPVLDSDGSFFLVSKLTVDKSRWQQGNVFSCSVMHEALHNHYTQKSLSLSPDYKDDDDK EPKSSDKTHTCPPCPAPELLGGPSVFLFPPKPKDTLMISRTPEVTCVVVDVSHEDPEVKFNWYVDGVEVHNAKTKPREEQYNSTYRVVSVLTVLHQDWLNGKEYKCKVSNKALPAPIEKTISKAKGQPREPQVCTLPPSRDELTKNQVSLWCLVKGFYPSDIAVEWESNGQPENNYKTTPPVLDSDGSFFLYSKLTVDKSRWQQGNVFSCSVMHEALHNRYTQKSLSLSP light: DIVMTQSPLSLPVTPGEPASISCRSSQSLVHSNRNTYLHWYQQKPGQAPRLLIYKVSNRFSGVPDRFSGSGSGTDFTLKISRVEAEDVGVYYCGQGTQVPYTFGQGTKLEIKRTVAAPSVFIFPPSDEQLKSGTASVVCLLNNFYPREAKVQWKVDNALQSGNSQESVTEQDSKDSTYSLSSTLTLSKADYEKHKVYACEVTHQGLSSPVTKSFNRGEC",0.88
2,"CE115HA000 K43Q (antibody, human IgG1, kappa, L234A L235A, N297A, name in Kabat numbering, one-arm antibody) heavy: QVQLVESGGGVVQPGRSLRLSCAASGFTFSNAWMHWVRQAPGQGLEWVAQIKAKSNNYATYYAESVKGRFTISRDDSKNSLYLQMNSLKTEDTAVYYCRYVHYGAYYGVDAWGQGTTVTVSSASTKGPSVFPLAPSSKSTSGGTAALGCLVKDYFPEPVTVSWNSGALTSGVHTFPAVLQSSGLYSLSSVVTVPSSSLGTQTYICNVNHKPSNTKVDKKVEPKSCDKTHTCPPCPAPEAAGGPSVFLFPPKPKDTLMISRTPEVTCVVVDVSHEDPEVKFNWYVDGVEVHNAKTKPREEQYASTYRVVSVLTVLHQDWLNGKEYKCKVSNKALPAPIEKTISKAKGQPREPQVYTLPPSRCELTKNQVSLSCAVKGFYPSDIAVEWESNGQPENNYKTTPPVLDSDGSFFLVSKLTVDKSRWQQGNVFSCSVMHEALHNHYTQKSLSLSPDYKDDDDK EPKSSDKTHTCPPCPAPELLGGPSVFLFPPKPKDTLMISRTPEVTCVVVDVSHEDPEVKFNWYVDGVEVHNAKTKPREEQYNSTYRVVSVLTVLHQDWLNGKEYKCKVSNKALPAPIEKTISKAKGQPREPQVCTLPPSRDELTKNQVSLWCLVKGFYPSDIAVEWESNGQPENNYKTTPPVLDSDGSFFLYSKLTVDKSRWQQGNVFSCSVMHEALHNRYTQKSLSLSP light: DIVMTQSPLSLPVTPGEPASISCRSSQSLVHSNRNTYLHWYQQKPGQAPRLLIYKVSNRFSGVPDRFSGSGSGTDFTLKISRVEAEDVGVYYCGQGTQVPYTFGQGTKLEIKRTVAAPSVFIFPPSDEQLKSGTASVVCLLNNFYPREAKVQWKVDNALQSGNSQESVTEQDSKDSTYSLSSTLTLSKADYEKHKVYACEVTHQGLSSPVTKSFNRGEC",0.89
3,"CE115HA000 K52E (antibody, human IgG1, kappa, L234A L235A, N297A, name in Kabat numbering, one-arm antibody) heavy: QVQLVESGGGVVQPGRSLRLSCAASGFTFSNAWMHWVRQAPGKGLEWVAQIEAKSNNYATYYAESVKGRFTISRDDSKNSLYLQMNSLKTEDTAVYYCRYVHYGAYYGVDAWGQGTTVTVSSASTKGPSVFPLAPSSKSTSGGTAALGCLVKDYFPEPVTVSWNSGALTSGVHTFPAVLQSSGLYSLSSVVTVPSSSLGTQTYICNVNHKPSNTKVDKKVEPKSCDKTHTCPPCPAPEAAGGPSVFLFPPKPKDTLMISRTPEVTCVVVDVSHEDPEVKFNWYVDGVEVHNAKTKPREEQYASTYRVVSVLTVLHQDWLNGKEYKCKVSNKALPAPIEKTISKAKGQPREPQVYTLPPSRCELTKNQVSLSCAVKGFYPSDIAVEWESNGQPENNYKTTPPVLDSDGSFFLVSKLTVDKSRWQQGNVFSCSVMHEALHNHYTQKSLSLSPDYKDDDDK EPKSSDKTHTCPPCPAPELLGGPSVFLFPPKPKDTLMISRTPEVTCVVVDVSHEDPEVKFNWYVDGVEVHNAKTKPREEQYNSTYRVVSVLTVLHQDWLNGKEYKCKVSNKALPAPIEKTISKAKGQPREPQVCTLPPSRDELTKNQVSLWCLVKGFYPSDIAVEWESNGQPENNYKTTPPVLDSDGSFFLYSKLTVDKSRWQQGNVFSCSVMHEALHNRYTQKSLSLSP light: DIVMTQSPLSLPVTPGEPASISCRSSQSLVHSNRNTYLHWYQQKPGQAPRLLIYKVSNRFSGVPDRFSGSGSGTDFTLKISRVEAEDVGVYYCGQGTQVPYTFGQGTKLEIKRTVAAPSVFIFPPSDEQLKSGTASVVCLLNNFYPREAKVQWKVDNALQSGNSQESVTEQDSKDSTYSLSSTLTLSKADYEKHKVYACEVTHQGLSSPVTKSFNRGEC",19.4
4,"CE115HA000 K52D (antibody, human IgG1, kappa, L234A L235A, N297A, name in Kabat numbering, one-arm antibody) heavy: QVQLVESGGGVVQPGRSLRLSCAASGFTFSNAWMHWVRQAPGKGLEWVAQIDAKSNNYATYYAESVKGRFTISRDDSKNSLYLQMNSLKTEDTAVYYCRYVHYGAYYGVDAWGQGTTVTVSSASTKGPSVFPLAPSSKSTSGGTAALGCLVKDYFPEPVTVSWNSGALTSGVHTFPAVLQSSGLYSLSSVVTVPSSSLGTQTYICNVNHKPSNTKVDKKVEPKSCDKTHTCPPCPAPEAAGGPSVFLFPPKPKDTLMISRTPEVTCVVVDVSHEDPEVKFNWYVDGVEVHNAKTKPREEQYASTYRVVSVLTVLHQDWLNGKEYKCKVSNKALPAPIEKTISKAKGQPREPQVYTLPPSRCELTKNQVSLSCAVKGFYPSDIAVEWESNGQPENNYKTTPPVLDSDGSFFLVSKLTVDKSRWQQGNVFSCSVMHEALHNHYTQKSLSLSPDYKDDDDK EPKSSDKTHTCPPCPAPELLGGPSVFLFPPKPKDTLMISRTPEVTCVVVDVSHEDPEVKFNWYVDGVEVHNAKTKPREEQYNSTYRVVSVLTVLHQDWLNGKEYKCKVSNKALPAPIEKTISKAKGQPREPQVCTLPPSRDELTKNQVSLWCLVKGFYPSDIAVEWESNGQPENNYKTTPPVLDSDGSFFLYSKLTVDKSRWQQGNVFSCSVMHEALHNRYTQKSLSLSP light: DIVMTQSPLSLPVTPGEPASISCRSSQSLVHSNRNTYLHWYQQKPGQAPRLLIYKVSNRFSGVPDRFSGSGSGTDFTLKISRVEAEDVGVYYCGQGTQVPYTFGQGTKLEIKRTVAAPSVFIFPPSDEQLKSGTASVVCLLNNFYPREAKVQWKVDNALQSGNSQESVTEQDSKDSTYSLSSTLTLSKADYEKHKVYACEVTHQGLSSPVTKSFNRGEC",166
